{"source": "patent US20050265970A1", "about": "(UNIVERSITY OF CHICAGO, published 2005)", "binders": {"B1": {"name": "GST-MKK7 (GST-JNKK2; human JNKK2 in pGEX-2T) (enzyme)", "chain": "MAASSLEQKLSRLEAKLKQENREARRRIDLNLDISPQRPRPTLQLPLANDGGSRSPSSESSPQHPTPPARPRHMLGLPSTLFTPRSMESIEIDHKLQEIMKQTGYLTIGGQRYQAEINDLENLGEMGSGTCGPVWKMRFRKTGHVIAVKQMRRSGNKEENKRILMDLDVVLKSHDCPYIVQCFGTFITNTDVFIAMELMGTCAEKLKKRMQGPIPERILGKMTVAIVKALYYLKEKHGVIHRDVKPSNILLDERGQIKLCDFGISGRLVDSKAKTRSAGCAAYMAPERIDPPDPTKPDYDIRADVWSLGISLVELATGQFPYKNCKTDFEVLTKVLQEEPPLLPGHMGFSGDFQSFVKDCLTKDHRKRPKYNKLLEHSFIKRYETLEVDVASWFKDVMAKT", "notes": "On glutathione beads in pull-downs; also called recombinant JNKK2; not shown: glutathione S-transferase encoded by the pGEX-2T vector"}}, "key": {"[1]": {"molecular_target": "T1, GST (glutathione-S-transferase, control) (UniProt P08515 1-218 = GST)", "T1 construct": "Control beads in GST pull-downs", "T1 sequence (P08515 whole entry)": "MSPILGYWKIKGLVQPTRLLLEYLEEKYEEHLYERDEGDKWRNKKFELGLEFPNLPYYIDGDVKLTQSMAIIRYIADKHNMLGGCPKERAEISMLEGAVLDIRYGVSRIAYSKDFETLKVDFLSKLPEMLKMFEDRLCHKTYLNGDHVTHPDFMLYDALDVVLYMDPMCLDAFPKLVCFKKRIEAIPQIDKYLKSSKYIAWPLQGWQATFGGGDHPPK", "assay": "GST pull-down of 35S-labeled in vitro translated protein", "description": "Binding assays were performed according to standard procedures, and ³⁵S-labeled proteins that bound to beads, as well as 2 μl of each in vitro translation mix (input), were then resolved by SDS polyacrylamide gel electrophoresis."}, "[2]": {"molecular_target": "T2, GST-Gadd45β (full-length murine Gadd45β directly fused to GST) (murine, UniProt P22339 1-160)", "T2 construct": "range 1-160; Made in E. coli BL21, on glutathione-sepharose beads in pull-downs; purified protein in kinase assays; not shown: glutathione S-transferase encoded by the pGEX-3X vector", "T2 sequence (looked up)": "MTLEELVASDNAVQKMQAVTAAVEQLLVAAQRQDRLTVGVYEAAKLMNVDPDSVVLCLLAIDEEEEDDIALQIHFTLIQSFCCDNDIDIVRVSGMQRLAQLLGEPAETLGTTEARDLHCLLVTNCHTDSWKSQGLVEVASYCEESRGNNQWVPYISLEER", "assay": "GST pull-down of 35S-labeled in vitro translated MKK7 peptides"}, "[3]": {"molecular_target": "B1", "assay": "GST pull-down with GST-JNKK2 beads and 35S-labeled in vitro translated Gadd45β truncations"}, "[4]": {"molecular_target": "T3, Gadd45β (1-68) (EcoRV digestion), in vitro translated as GFP fusion (murine, UniProt P22339 1-68, 35S-methionine label)", "T3 construct": "range 1-68; not shown: GFP of pEGFP-N1 (Clontech) with a short oligonucleotide-encoded linker", "T3 sequence (looked up)": "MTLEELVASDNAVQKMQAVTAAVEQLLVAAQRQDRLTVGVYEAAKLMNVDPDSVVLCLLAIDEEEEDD", "assay": "GST pull-down with GST-JNKK2 beads and 35S-labeled in vitro translated Gadd45β truncations"}, "[5]": {"molecular_target": "T4, endogenous MEKK1 of 3DO cells (UniProt P53349 2-1493, limits assumed)", "T4 sequence (looked up)": "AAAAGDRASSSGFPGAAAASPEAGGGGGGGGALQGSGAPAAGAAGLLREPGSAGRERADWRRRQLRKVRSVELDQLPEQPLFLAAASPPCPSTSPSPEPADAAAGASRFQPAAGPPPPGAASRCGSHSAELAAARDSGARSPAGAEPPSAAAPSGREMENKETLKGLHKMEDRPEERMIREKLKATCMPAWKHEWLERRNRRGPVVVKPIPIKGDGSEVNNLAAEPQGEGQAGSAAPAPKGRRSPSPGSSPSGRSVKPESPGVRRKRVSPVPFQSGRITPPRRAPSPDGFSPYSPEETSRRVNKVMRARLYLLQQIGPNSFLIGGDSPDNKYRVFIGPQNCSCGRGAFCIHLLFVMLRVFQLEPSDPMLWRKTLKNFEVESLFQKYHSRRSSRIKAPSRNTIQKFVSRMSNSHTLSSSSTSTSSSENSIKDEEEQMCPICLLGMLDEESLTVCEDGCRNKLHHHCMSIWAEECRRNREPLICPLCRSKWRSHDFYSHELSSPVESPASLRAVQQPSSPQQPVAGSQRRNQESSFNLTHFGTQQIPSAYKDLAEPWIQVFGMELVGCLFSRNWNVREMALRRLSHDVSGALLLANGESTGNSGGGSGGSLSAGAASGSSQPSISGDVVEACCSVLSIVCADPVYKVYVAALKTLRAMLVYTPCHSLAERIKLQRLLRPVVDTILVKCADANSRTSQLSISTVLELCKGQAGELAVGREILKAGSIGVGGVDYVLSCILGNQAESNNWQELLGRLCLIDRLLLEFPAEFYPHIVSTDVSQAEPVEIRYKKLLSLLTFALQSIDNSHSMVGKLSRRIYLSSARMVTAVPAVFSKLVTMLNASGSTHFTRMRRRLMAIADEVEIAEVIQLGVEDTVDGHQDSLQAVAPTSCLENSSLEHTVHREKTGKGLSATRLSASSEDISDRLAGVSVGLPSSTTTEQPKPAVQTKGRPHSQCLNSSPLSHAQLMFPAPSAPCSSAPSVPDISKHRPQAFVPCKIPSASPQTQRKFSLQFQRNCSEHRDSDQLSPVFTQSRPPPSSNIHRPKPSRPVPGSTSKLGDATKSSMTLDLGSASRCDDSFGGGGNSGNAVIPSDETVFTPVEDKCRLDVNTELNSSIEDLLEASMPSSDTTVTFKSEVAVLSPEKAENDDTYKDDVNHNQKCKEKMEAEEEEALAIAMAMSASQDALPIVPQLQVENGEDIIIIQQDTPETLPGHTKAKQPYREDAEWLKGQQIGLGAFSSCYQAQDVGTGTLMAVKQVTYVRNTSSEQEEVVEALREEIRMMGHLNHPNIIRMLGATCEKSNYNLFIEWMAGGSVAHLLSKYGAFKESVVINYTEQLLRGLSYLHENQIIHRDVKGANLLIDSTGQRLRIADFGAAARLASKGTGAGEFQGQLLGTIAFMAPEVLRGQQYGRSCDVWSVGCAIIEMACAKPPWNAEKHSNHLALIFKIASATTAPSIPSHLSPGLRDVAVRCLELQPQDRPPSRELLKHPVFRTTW", "assay": "co-immunoprecipitation of endogenous proteins from 3DO cells"}}, "note": "Ends that are not written are not given here.", "data": [{"binder": "FL-JNKK2, JNKK2 (1-401; FL), 35S-labeled in vitro translated full-length human JNKK2/MKK7 (enzyme, 35S-methionine label, Reticulocyte lysate translation from pBS-JNKK2; also called full-length MKK7; SacII (FL)) MAASSLEQKLSRLEAKLKQENREARRRIDLNLDISPQRPRPTLQLPLANDGGSRSPSSESSPQHPTPPARPRHMLGLPSTLFTPRSMESIEIDHKLQEIMKQTGYLTIGGQRYQAEINDLENLGEMGSGTCGPVWKMRFRKTGHVIAVKQMRRSGNKEENKRILMDLDVVLKSHDCPYIVQCFGTFITNTDVFIAMELMGTCAEKLKKRMQGPIPERILGKMTVAIVKALYYLKEKHGVIHRDVKPSNILLDERGQIKLCDFGISGRLVDSKAKTRSAGCAAYMAPERIDPPDPTKPDYDIRADVWSLGISLVELATGQFPYKNCKTDFEVLTKVLQEEPPLLPGHMGFSGDFQSFVKDCLTKDHRKRPKYNKLLEHSFIKRYETLEVDVASWFKDVMAKT", "values": [{"measurement": "binding result", "setting": "[1]", "result": "no binding"}]}, {"binder": "TGHVIAVKQMRRSGNKEENKRILMD (also: 35S-methionine label, place not given here, eGFP fusion, side not given here, not shown: enhanced green fluorescent protein (eGFP, Clontech) fusion partner)", "note": "[MKK7 peptide 2 (aa 142-166 of MKK7/JNKK2), in vitro translated, fused to eGFP]", "values": [{"measurement": "binding result", "setting": "[2]", "result": "no binding"}]}, {"binder": "ARDLHCLLVTNCHTDSWKSQGLVEVASYCEESRGNNQWVPYISLEER (other, murine, UniProt P22339 114-160, looked up, cysteine pairing not given here; also: GFP fusion, letters not given here, 35S-methionine label, The two places differ by one residue at the N-terminal limit; also called Gadd45β(113-160) in the methods; not shown: GFP of pEGFP-N1 (Clontech) with a short oligonucleotide-encoded linker)", "note": "[Gadd45β (114-160), in vitro translated as GFP fusion]", "values": [{"measurement": "binding result", "setting": "[3]", "result": "no binding"}]}, {"binder": "B1", "values": [{"measurement": "binding result", "setting": "[4]", "result": "no binding"}]}, {"binder": "Gadd45β in cells (untagged full-length: endogenous in 3DO cells and MEFs, or stably expressed in 3DO-IκBαM-Gadd45β clones) (other, UniProt P22339 1-160, looked up, also called endogenous Gadd45β) MTLEELVASDNAVQKMQAVTAAVEQLLVAAQRQDRLTVGVYEAAKLMNVDPDSVVLCLLAIDEEEEDDIALQIHFTLIQSFCCDNDIDIVRVSGMQRLAQLLGEPAETLGTTEARDLHCLLVTNCHTDSWKSQGLVEVASYCEESRGNNQWVPYISLEER", "values": [{"measurement": "binding result", "setting": "[5]", "result": "no binding"}]}]}
